# From paper PMC13228514 (2026)
# B1: recombinant lipoma HMGIC fusion partner-like protein 5 (LHFPL5), residues 2-219 (natural protein)
# chain: VKLLPAQEAAKIYHTNYVRNSRAVGVMWGTLTICFSVLVMALFIQPYWIGDSVSTPQAGYFGLFSYCVGNVLSSELICKGGPLDFSSIPSRAFKTAMFFVALAMFLIIGSIICFSLFFVCNTATVYKICAWMQLAAATGLMIGCLVYPDGWDSSEVRRMCGEQTGKYTLGHCTIRWAFMLAILSIGDALILSFLAFVLGYRQDKLLPDDYKADGNEEV
# B2: recombinant protocadherin-15 (PCDH15), residues 1-1462 (EC1-EC11 and part of the cytoplasmic region) (domain or fragment)
# chain: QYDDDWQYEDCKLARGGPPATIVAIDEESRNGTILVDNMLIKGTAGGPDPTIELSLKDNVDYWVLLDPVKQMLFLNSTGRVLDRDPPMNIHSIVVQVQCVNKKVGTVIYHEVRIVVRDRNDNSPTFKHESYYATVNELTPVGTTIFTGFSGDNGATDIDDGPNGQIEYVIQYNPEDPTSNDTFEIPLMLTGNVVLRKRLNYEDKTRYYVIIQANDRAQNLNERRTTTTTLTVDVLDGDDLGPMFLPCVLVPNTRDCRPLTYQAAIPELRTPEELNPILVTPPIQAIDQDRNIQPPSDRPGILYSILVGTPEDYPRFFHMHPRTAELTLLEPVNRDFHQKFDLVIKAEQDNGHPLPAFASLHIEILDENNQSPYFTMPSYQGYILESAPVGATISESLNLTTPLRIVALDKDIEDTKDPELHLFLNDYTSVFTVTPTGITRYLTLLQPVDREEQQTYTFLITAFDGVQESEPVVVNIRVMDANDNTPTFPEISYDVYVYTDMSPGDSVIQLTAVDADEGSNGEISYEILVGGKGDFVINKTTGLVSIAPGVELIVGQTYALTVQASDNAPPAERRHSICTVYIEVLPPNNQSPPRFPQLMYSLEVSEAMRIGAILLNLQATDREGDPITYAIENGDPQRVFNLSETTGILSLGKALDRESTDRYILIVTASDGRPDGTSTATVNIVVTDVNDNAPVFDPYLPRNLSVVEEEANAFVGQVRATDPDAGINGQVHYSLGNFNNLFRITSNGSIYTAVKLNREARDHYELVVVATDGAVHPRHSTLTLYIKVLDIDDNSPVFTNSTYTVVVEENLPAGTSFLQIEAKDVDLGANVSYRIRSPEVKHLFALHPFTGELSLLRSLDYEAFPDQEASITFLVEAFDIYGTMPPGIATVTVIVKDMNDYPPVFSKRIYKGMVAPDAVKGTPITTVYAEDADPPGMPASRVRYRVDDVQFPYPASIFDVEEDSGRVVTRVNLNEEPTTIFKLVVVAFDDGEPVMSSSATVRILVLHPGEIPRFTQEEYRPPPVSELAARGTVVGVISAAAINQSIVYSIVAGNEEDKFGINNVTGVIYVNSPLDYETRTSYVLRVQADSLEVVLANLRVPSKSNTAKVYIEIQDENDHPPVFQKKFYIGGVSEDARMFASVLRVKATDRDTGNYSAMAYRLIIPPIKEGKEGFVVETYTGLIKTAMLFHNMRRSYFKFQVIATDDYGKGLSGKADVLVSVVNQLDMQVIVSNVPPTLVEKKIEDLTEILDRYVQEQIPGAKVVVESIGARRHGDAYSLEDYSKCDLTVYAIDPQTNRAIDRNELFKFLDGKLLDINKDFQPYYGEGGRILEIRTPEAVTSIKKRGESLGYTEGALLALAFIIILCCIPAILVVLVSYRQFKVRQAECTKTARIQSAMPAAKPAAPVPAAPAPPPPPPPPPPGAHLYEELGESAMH
# Assays:
# Assay in all cases: BLI; intact antibody
# anti-LHFPL5 = target: anti-LHFPL5
# 39G7 = target: 39G7
# 8D1 = target: 8D1
# 8D1, sequence (Q99PJ1 27-1462): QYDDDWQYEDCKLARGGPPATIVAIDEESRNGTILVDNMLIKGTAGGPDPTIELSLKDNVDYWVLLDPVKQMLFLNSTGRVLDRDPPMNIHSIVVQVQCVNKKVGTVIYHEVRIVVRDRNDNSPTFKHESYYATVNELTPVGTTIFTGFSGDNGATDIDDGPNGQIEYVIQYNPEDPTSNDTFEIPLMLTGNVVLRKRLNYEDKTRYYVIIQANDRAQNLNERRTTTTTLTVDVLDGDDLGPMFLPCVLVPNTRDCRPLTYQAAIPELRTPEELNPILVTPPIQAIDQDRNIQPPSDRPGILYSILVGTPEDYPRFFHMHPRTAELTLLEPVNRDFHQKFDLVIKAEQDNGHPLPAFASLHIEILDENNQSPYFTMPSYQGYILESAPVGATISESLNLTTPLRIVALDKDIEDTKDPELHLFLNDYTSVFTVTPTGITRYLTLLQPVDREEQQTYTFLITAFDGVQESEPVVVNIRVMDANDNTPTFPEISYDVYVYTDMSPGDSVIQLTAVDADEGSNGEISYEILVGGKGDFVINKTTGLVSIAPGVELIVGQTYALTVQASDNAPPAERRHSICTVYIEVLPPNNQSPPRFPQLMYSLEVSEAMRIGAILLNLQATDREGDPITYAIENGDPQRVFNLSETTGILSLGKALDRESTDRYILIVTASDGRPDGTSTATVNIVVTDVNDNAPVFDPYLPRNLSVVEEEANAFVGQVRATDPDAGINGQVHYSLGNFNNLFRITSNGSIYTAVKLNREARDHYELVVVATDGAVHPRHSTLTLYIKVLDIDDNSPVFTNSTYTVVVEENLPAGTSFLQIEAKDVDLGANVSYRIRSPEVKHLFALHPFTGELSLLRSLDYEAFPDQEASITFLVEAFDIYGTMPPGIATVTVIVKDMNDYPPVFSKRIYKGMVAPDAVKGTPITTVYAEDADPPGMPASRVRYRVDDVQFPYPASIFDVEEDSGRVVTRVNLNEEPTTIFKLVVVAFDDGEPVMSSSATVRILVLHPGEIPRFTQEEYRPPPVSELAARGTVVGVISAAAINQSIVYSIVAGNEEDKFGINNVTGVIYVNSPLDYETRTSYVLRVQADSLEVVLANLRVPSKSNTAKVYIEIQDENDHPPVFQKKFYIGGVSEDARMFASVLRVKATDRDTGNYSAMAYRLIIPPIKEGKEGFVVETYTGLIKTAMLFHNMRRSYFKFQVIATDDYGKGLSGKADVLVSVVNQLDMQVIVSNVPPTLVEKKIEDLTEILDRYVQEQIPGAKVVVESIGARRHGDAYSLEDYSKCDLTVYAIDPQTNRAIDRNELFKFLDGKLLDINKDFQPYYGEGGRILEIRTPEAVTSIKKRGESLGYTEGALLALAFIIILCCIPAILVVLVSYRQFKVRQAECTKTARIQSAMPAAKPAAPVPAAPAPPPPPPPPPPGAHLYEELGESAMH
# 39G7, sequence (Q99PJ1 27-1462): as above
Binder,Kd (anti-LHFPL5) [nM],koff (anti-LHFPL5) [s⁻¹],Kd (39G7) [nM],koff (39G7) [s⁻¹],Kd (8D1) [nM],koff (8D1) [s⁻¹]
B1,1,5e-05,,,,
B2,,,0.2,2e-05,0.05,3e-05
